From the supplement of paper PMC12764529
± gives the half width of the 95% confidence interval.

What was measured:
[1] = folding stability dG unfold from chymotrypsin proteolysis; higher = more stable
Outline: (§1)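 How resistant each design was to proteolysis was captured as K50, inferred by Bayesian fitting of sequencing counts. Unfolding free energy was then derived relative to a sequence-predicted unfolded-state K50 and a shared folded-state K50, per protease or combined. Digestion used trypsin and chymotrypsin at 11 threefold-diluted concentrations plus a no-protease condition, on mini-proteins under 80 residues without cysteine in a PA-tagged cDNA display construct. Designs were kept only when AlphaFold2 dimer inter-PAE was above 15.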

[2] = folding stability dG unfold (combined trypsin and chymotrypsin); higher = more stable
Outline: as §1

[3] = folding stability dG unfold from trypsin proteolysis; higher = more stable
Outline: as §1

Sequence	folding stability dG unfold [1]	folding stability dG unfold [2]	folding stability dG unfold [3]
SQVKIHIPFEVEYSPENGNYFFMIRVRYPGKERPIMFPYKDPEQMREWARTIAKELAKENPDNVEIEIWWSA [r9_1148_TrROS]	2.83 ± 0.095 kcal/mol	2.73 ± 0.15 kcal/mol	2.42 ± 0.038 kcal/mol
SRIKISIFRPGKIIPEIPIKVDSVEEAVEKVLEYIRKFPPNAPYYIMIEVEHTDPANGQKQEGTVHIPIKSA [r9_245_TrROS]	4 ± 0.048 kcal/mol	3.39 ± 0.12 kcal/mol	2.22 ± 0.059 kcal/mol
SSAEELARRLAAELAERLPPGARITDVRIERRADGTVTITVTVELPDGRTLTVTITLDLATGEITIEIHPSA [r9_219_TrROS_Hall]	4.35 ± 0.26 kcal/mol	4.89 ± 0.19 kcal/mol	4.95 ± 0.16 kcal/mol
SSEILEKLAKELPDLEPVGVEEEPLPDGGRRLTLVARRPETGTYVRVTVDVPPGGGVASVEVEEVPVSRLSA [r9_274_JUSTAS]	2.23 ± 0.033 kcal/mol	1.77 ± 0.054 kcal/mol	0.529 ± 0.054 kcal/mol
SSKIEASATIEGDVITVTLVADSLSDLLAAIKELAEKLGVSFEILSISYKRLPNGKIIATVTARVKPEDLSA [r9_102_TrMRF]	4.65 ± 0.048 kcal/mol	4.277 ± 0.039 kcal/mol	3.24 ± 0.056 kcal/mol
SSLSIPGATKEEFEEIAEELEKKNPGVKVTVTYDPENGVITITITKPVKDKKGNLIGTETEVITITVTKPSA [r9_378_JUSTAS]	2.26 ± 0.072 kcal/mol	2.41 ± 0.14 kcal/mol	3.05 ± 0.41 kcal/mol
SSMSSSPLGSDPATGTTYYLSVSNNSTTLSTVTPAPVLPISPEELEKIAKELAKKNPKLAKKAKELAEKLKS [r1_330_JUSTAS]	0.123 ± 0.25 kcal/mol	-0.0137 ± 0.3 kcal/mol	-0.301 ± 0.2 kcal/mol
SSMTLVTVEMEITLRTPEGGSETLKRTFEREVSPDDPAAVEAAVEAAKEEIREAHPDVVEVRVVKVDTALSA [r9_436_JUSTAS]	4.459 ± 0.039 kcal/mol	4.41 ± 0.046 kcal/mol	4.06 ± 0.089 kcal/mol
SSMTTTEKKYTYNDSSISVSTTTLPDGSKLITTPITRKNPDGIDVTETLTTLDKGSGVTPVSPSTSTLNTSA [r9_554_JUSTAS]	0.602 ± 0.035 kcal/mol	0.177 ± 0.069 kcal/mol	-1.24 ± 0.18 kcal/mol
SSPIMIKMKDPDDREKIEKAVEEINDETGMSIRPESVDPNGKYTFMINMPPEHQKKILKALREAGNIEIVSA [r9_472_TrROS]	1.1 ± 0.15 kcal/mol	0.874 ± 0.16 kcal/mol	0.289 ± 0.21 kcal/mol
SSPKILTESELKITIPMTDPETGKPINLEVTIPLLVDPATGTVEVLEIKITGPEEVQEILKKLIEKLIKESA [r9_619_JUSTAS]	2.15 ± 0.12 kcal/mol	2.11 ± 0.22 kcal/mol	2.14 ± 0.23 kcal/mol
SSSGPKTELITLKYEEPVRSPEEAEARARALAEEIAERTGAPIEVDVEIEYDPETGKAYVTVPVRVLLPDSA [r9_741_JUSTAS]	0.124 ± 0.16 kcal/mol	0.727 ± 0.1 kcal/mol	1.14 ± 0.037 kcal/mol
SSSTVTVTVTFPDGTVVTVDFTGSLAEVEAAVREWVRQYAAEQGLDPREVRVTITFADDGTTRERTLPLRSA [r9_1193_JUSTAS]	2.42 ± 0.035 kcal/mol	2.04 ± 0.086 kcal/mol	0.921 ± 0.043 kcal/mol
SSSVVESSYDPSTGTLTVTVSYDFPPAPPAAATSSTTPVGSNSYTGSGSYTSPAGASSLSSTATGPPTLSSA [r9_780_JUSTAS]	1.15 ± 0.054 kcal/mol	1.37 ± 0.048 kcal/mol	1.43 ± 0.031 kcal/mol
SSVTIPFKITDPNTTIAEIAERVRELLPESLGELSVTVTFSDGTTLNVTPGENLSKYYSPDDELTITVDAPS [r1_56_JUSTAS]	1.23 ± 0.11 kcal/mol	1.27 ± 0.11 kcal/mol	1.29 ± 0.034 kcal/mol
SSVTLVLEKPLPSGKRLVVVTTLKPEPARGTVRLDVTTTTYTFSKTENGEITTSSTTSTSTETVSPEELLSA [r9_1137_JUSTAS]	2.48 ± 0.18 kcal/mol	2.49 ± 0.29 kcal/mol	2.53 ± 0.13 kcal/mol
STLTLEELKERFPELSEEELEALAERLAALPAPVTVTVEVRPAPPPPVEERELSEEELLEARLRPGERVESA [r9_1024_TrROS_Hall]	1.94 ± 0.056 kcal/mol	1.51 ± 0.098 kcal/mol	0.624 ± 0.06 kcal/mol
